Experimental data as given in the supplement of paper PMC9428881.
± gives the standard error.

Assay: background-corrected fluorescence of 3'-dye-labeled ssDNA relative to brightest sequence (3'-GCGCG) (fraction); higher = brighter dye fluorescence (less quenching)
In short: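 Light-directed phosphoramidite synthesis on glass slides produced single-stranded DNA carrying a 3' Cy3 or Cy5 dye next to each of 1024 permuted pentamers. After a 2 h acetonitrile wash at r.t., arrays were scanned at 532 or 635 nm both before and after overnight deprotection in ethylenediamine/ethanol. Every value is the mean of 10 features per array over at least 3 syntheses. Fluorescence had unlabeled-oligo background subtracted and was scaled to the brightest sequence.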

| Sequence | background-corrected fluorescence (dye: Cy3 (3' terminal)) | background-corrected fluorescence (dye: Cy5 (3' terminal)) |
| --- | --- | --- |
| TTTTTTGCTGATGCGCATCATTTTTTTTTTTTTTTACATG [GTACA] | 0.519 ± 0.03 | 0.409 ± 0.023 |
| TTTTTTGCTGATGCGCATGATTTTTTTTTTTTTTTACATC [CTACA] | 0.392 ± 0.027 | 0.322 ± 0.018 |
| TTTTTTGCTGATGCGCATGCTTTTTTTTTTTTTTTACATA [ATACA] | 0.591 ± 0.025 | 0.403 ± 0.038 |
| TTTTTTGCTGATGCTCAGCATTTTTTTTTTTTTTTACAGT [TGACA] | 0.629 ± 0.039 | 0.474 ± 0.03 |
| TTTTTTGCTGATGCTCATCATTTTTTTTTTTTTTTACAGG [GGACA] | 0.646 ± 0.034 | 0.511 ± 0.053 |
| TTTTTTGCTGATGCTCATGATTTTTTTTTTTTTTTACAGC [CGACA] | 0.508 ± 0.023 | 0.404 ± 0.024 |
| TTTTTTGCTGATGCTCATGCTTTTTTTTTTTTTTTACAGA [AGACA] | 0.615 ± 0.02 | 0.459 ± 0.036 |
| TTTTTTGCTGATGCTGAGCATTTTTTTTTTTTTTTACACT [TCACA] | 0.51 ± 0.018 | 0.35 ± 0.033 |
| TTTTTTGCTGATGCTGATCATTTTTTTTTTTTTTTACACG [GCACA] | 0.504 ± 0.029 | 0.422 ± 0.054 |
| TTTTTTGCTGATGCTGATGATTTTTTTTTTTTTTTACACC [CCACA] | 0.369 ± 0.022 | 0.275 ± 0.012 |
| TTTTTTGCTGATGCTGATGCTTTTTTTTTTTTTTTACACA | 0.469 ± 0.022 | 0.374 ± 0.031 |
| TTTTTTGCTGATGCTGCGCATTTTTTTTTTTTTTTACAAT [TAACA] | 0.525 ± 0.028 | 0.396 ± 0.021 |
| TTTTTTGCTGATGCTGCTCATTTTTTTTTTTTTTTACAAG [GAACA] | 0.53 ± 0.015 | 0.425 ± 0.021 |
| TTTTTTGCTGATGCTGCTGATTTTTTTTTTTTTTTACAAC [CAACA] | 0.448 ± 0.0078 | 0.302 ± 0.032 |
| TTTTTTGCTGATGCTGCTGCTTTTTTTTTTTTTTTACAAA [AAACA] | 0.581 ± 0.022 | 0.499 ± 0.064 |
| TTTTTTGCTGCGCAGCAGCATTTTTTTTTTTTTTTAATTT | 0.559 ± 0.029 | 0.39 ± 0.025 |
| TTTTTTGCTGCGCAGCATCATTTTTTTTTTTTTTTAATTG [GTTAA] | 0.561 ± 0.03 | 0.381 ± 0.025 |
| TTTTTTGCTGCGCAGCATGATTTTTTTTTTTTTTTAATTC [CTTAA] | 0.419 ± 0.015 | 0.297 ± 0.018 |
| TTTTTTGCTGCGCAGCATGCTTTTTTTTTTTTTTTAATTA [ATTAA] | 0.564 ± 0.022 | 0.43 ± 0.027 |
| TTTTTTGCTGCGCATCAGCATTTTTTTTTTTTTTTAATGT [TGTAA] | 0.616 ± 0.033 | 0.507 ± 0.031 |
| TTTTTTGCTGCGCATCATCATTTTTTTTTTTTTTTAATGG [GGTAA] | 0.645 ± 0.023 | 0.51 ± 0.048 |
| TTTTTTGCTGCGCATCATGATTTTTTTTTTTTTTTAATGC [CGTAA] | 0.515 ± 0.016 | 0.4 ± 0.035 |
| TTTTTTGCTGCGCATCATGCTTTTTTTTTTTTTTTAATGA [AGTAA] | 0.634 ± 0.032 | 0.524 ± 0.03 |

| Sequence | background-corrected fluorescence (dye: Cy3 (3' terminal)) | background-corrected fluorescence (dye: Cy5 (3' terminal)) |
| --- | --- | --- |
| TTTTTTGCTGCGCATGAGCATTTTTTTTTTTTTTTAATCT [TCTAA] | 0.483 ± 0.036 | 0.338 ± 0.02 |
| TTTTTTGCTGCGCATGATCATTTTTTTTTTTTTTTAATCG [GCTAA] | 0.504 ± 0.0074 | 0.399 ± 0.026 |
| TTTTTTGCTGCGCATGATGATTTTTTTTTTTTTTTAATCC [CCTAA] | 0.376 ± 0.013 | 0.29 ± 0.018 |
| TTTTTTGCTGCGCATGATGCTTTTTTTTTTTTTTTAATCA [ACTAA] | 0.489 ± 0.025 | 0.382 ± 0.028 |
| TTTTTTGCTGCGCATGCGCATTTTTTTTTTTTTTTAATAT [TATAA] | 0.54 ± 0.022 | 0.413 ± 0.036 |
| TTTTTTGCTGCGCATGCTCATTTTTTTTTTTTTTTAATAG [GATAA] | 0.535 ± 0.0083 | 0.408 ± 0.017 |
| TTTTTTGCTGCGCATGCTGATTTTTTTTTTTTTTTAATAC [CATAA] | 0.453 ± 0.011 | 0.317 ± 0.019 |
| TTTTTTGCTGCGCATGCTGCTTTTTTTTTTTTTTTAATAA | 0.578 ± 0.031 | 0.446 ± 0.022 |
| TTTTTTGCTGCTCAGCAGCATTTTTTTTTTTTTTTAAGTT [TTGAA] | 0.609 ± 0.021 | 0.433 ± 0.024 |
| TTTTTTGCTGCTCAGCATCATTTTTTTTTTTTTTTAAGTG [GTGAA] | 0.587 ± 0.027 | 0.457 ± 0.042 |
| TTTTTTGCTGCTCAGCATGATTTTTTTTTTTTTTTAAGTC [CTGAA] | 0.438 ± 0.029 | 0.349 ± 0.015 |
| TTTTTTGCTGCTCAGCATGCTTTTTTTTTTTTTTTAAGTA [ATGAA] | 0.591 ± 0.019 | 0.493 ± 0.074 |
| TTTTTTGCTGCTCATCAGCATTTTTTTTTTTTTTTAAGGT [TGGAA] | 0.658 ± 0.016 | 0.585 ± 0.052 |
| TTTTTTGCTGCTCATCATCATTTTTTTTTTTTTTTAAGGG [GGGAA] | 0.649 ± 0.021 | 0.558 ± 0.029 |
| TTTTTTGCTGCTCATCATGATTTTTTTTTTTTTTTAAGGC [CGGAA] | 0.6269 ± 0.0056 | 0.492 ± 0.038 |
| TTTTTTGCTGCTCATCATGCTTTTTTTTTTTTTTTAAGGA [AGGAA] | 0.779 ± 0.02 | 0.635 ± 0.045 |
| TTTTTTGCTGCTCATGAGCATTTTTTTTTTTTTTTAAGCT [TCGAA] | 0.56 ± 0.028 | 0.402 ± 0.026 |
| TTTTTTGCTGCTCATGATCATTTTTTTTTTTTTTTAAGCG [GCGAA] | 0.632 ± 0.033 | 0.513 ± 0.033 |
| TTTTTTGCTGCTCATGATGATTTTTTTTTTTTTTTAAGCC [CCGAA] | 0.443 ± 0.01 | 0.312 ± 0.023 |
| TTTTTTGCTGCTCATGATGCTTTTTTTTTTTTTTTAAGCA [ACGAA] | 0.571 ± 0.014 | 0.451 ± 0.026 |
| TTTTTTGCTGCTCATGCGCATTTTTTTTTTTTTTTAAGAT [TAGAA] | 0.564 ± 0.024 | 0.496 ± 0.081 |
| TTTTTTGCTGCTCATGCTCATTTTTTTTTTTTTTTAAGAG [GAGAA] | 0.607 ± 0.036 | 0.489 ± 0.086 |
| TTTTTTGCTGCTCATGCTGATTTTTTTTTTTTTTTAAGAC [CAGAA] | 0.485 ± 0.015 | 0.363 ± 0.018 |

| Sequence | background-corrected fluorescence (dye: Cy3 (3' terminal)) | background-corrected fluorescence (dye: Cy5 (3' terminal)) |
| --- | --- | --- |
| TTTTTTGCTGCTCATGCTGCTTTTTTTTTTTTTTTAAGAA | 0.619 ± 0.015 | 0.481 ± 0.022 |
| TTTTTTGCTGCTGAGCAGCATTTTTTTTTTTTTTTAACTT [TTCAA] | 0.523 ± 0.0097 | 0.362 ± 0.026 |
| TTTTTTGCTGCTGAGCATCATTTTTTTTTTTTTTTAACTG [GTCAA] | 0.547 ± 0.024 | 0.381 ± 0.029 |
| TTTTTTGCTGCTGAGCATGATTTTTTTTTTTTTTTAACTC [CTCAA] | 0.418 ± 0.028 | 0.293 ± 0.019 |
| TTTTTTGCTGCTGAGCATGCTTTTTTTTTTTTTTTAACTA [ATCAA] | 0.5388 ± 0.0047 | 0.406 ± 0.019 |
| TTTTTTGCTGCTGATCAGCATTTTTTTTTTTTTTTAACGT [TGCAA] | 0.606 ± 0.023 | 0.45 ± 0.025 |
| TTTTTTGCTGCTGATCATCATTTTTTTTTTTTTTTAACGG [GGCAA] | 0.652 ± 0.019 | 0.552 ± 0.04 |
| TTTTTTGCTGCTGATCATGATTTTTTTTTTTTTTTAACGC [CGCAA] | 0.547 ± 0.021 | 0.436 ± 0.057 |
| TTTTTTGCTGCTGATCATGCTTTTTTTTTTTTTTTAACGA [AGCAA] | 0.613 ± 0.0098 | 0.519 ± 0.07 |
| TTTTTTGCTGCTGATGAGCATTTTTTTTTTTTTTTAACCT [TCCAA] | 0.459 ± 0.016 | 0.36 ± 0.039 |
| TTTTTTGCTGCTGATGATCATTTTTTTTTTTTTTTAACCG [GCCAA] | 0.545 ± 0.036 | 0.42 ± 0.035 |
| TTTTTTGCTGCTGATGATGATTTTTTTTTTTTTTTAACCC [CCCAA] | 0.392 ± 0.021 | 0.294 ± 0.016 |
| TTTTTTGCTGCTGATGATGCTTTTTTTTTTTTTTTAACCA [ACCAA] | 0.492 ± 0.017 | 0.375 ± 0.053 |
| TTTTTTGCTGCTGATGCGCATTTTTTTTTTTTTTTAACAT [TACAA] | 0.529 ± 0.035 | 0.374 ± 0.021 |
| TTTTTTGCTGCTGATGCTCATTTTTTTTTTTTTTTAACAG [GACAA] | 0.576 ± 0.02 | 0.421 ± 0.019 |
| TTTTTTGCTGCTGATGCTGATTTTTTTTTTTTTTTAACAC [CACAA] | 0.421 ± 0.035 | 0.306 ± 0.021 |
| TTTTTTGCTGCTGATGCTGCTTTTTTTTTTTTTTTAACAA | 0.527 ± 0.024 | 0.419 ± 0.024 |
| TTTTTTGCTGCTGCGCAGCATTTTTTTTTTTTTTTAAATT | 0.543 ± 0.048 | 0.401 ± 0.019 |
| TTTTTTGCTGCTGCGCATCATTTTTTTTTTTTTTTAAATG [GTAAA] | 0.499 ± 0.015 | 0.375 ± 0.035 |
| TTTTTTGCTGCTGCGCATGATTTTTTTTTTTTTTTAAATC [CTAAA] | 0.439 ± 0.019 | 0.306 ± 0.019 |
| TTTTTTGCTGCTGCGCATGCTTTTTTTTTTTTTTTAAATA [ATAAA] | 0.564 ± 0.053 | 0.451 ± 0.031 |
| TTTTTTGCTGCTGCTCAGCATTTTTTTTTTTTTTTAAAGT [TGAAA] | 0.653 ± 0.026 | 0.514 ± 0.049 |
